The target of assay [1] is human PD-L1 (on cells or in tissue) (human) (UniProt Q9NZQ7). Kind of assay: IHC histoscore (0-300), FFPE tumor NSCLC sample 1080993B; 5H1 at 5 ug/ml.
For assay [2] the target is unchanged. Kind of assay: IHC histoscore (0-300), FFPE tumor RCC sample 1167809B; 5H1 at 5 ug/ml.
Assay [3] shares this target. The assay is described as follows: IHC histoscore (0-300), FFPE tumor RCC sample 1164619B; 5H1 at 5 ug/ml.
For assay [4] the target is unchanged. Kind of assay: IHC histoscore (0-300), FFPE tumor Mel sample 1168657B; 5H1 at 5 ug/ml.
The target is the same in assay [5]. Kind of assay: IHC histoscore (0-300), FFPE tumor Mel sample T980744; 5H1 at 5 ug/ml.
The target is the same in assay [6]. The assay is described as follows: IHC histoscore (0-300), FFPE tumor NSCLC sample 1080766B; 5H1 at 5 ug/ml.
Assay [7] has the same target. Kind of assay: IHC histoscore (0-300), FFPE tumor Mel sample T030668; 5H1 at 5 ug/ml.
The target is the same in assay [8]. The assay is described as follows: IHC histoscore (0-300), FFPE tumor NSCLC sample 1080790; 5H1 at 5 ug/ml.
Assay [9] shares this target. The assay is described as follows: IHC histoscore (0-300), FFPE tumor NSCLC sample 1080754B; 5H1 at 5 ug/ml.
Assay [10] has the same target. Kind of assay: IHC histoscore (0-300), FFPE tumor NSCLC sample 1080754B; 28-8 at 2 ug/ml.
The target is the same in assay [11]. The assay is described as follows: IHC histoscore (0-300), FFPE tumor Mel sample T980744; 28-8 at 2 ug/ml.
For assay [12] the target is unchanged. Kind of assay: IHC histoscore (0-300), FFPE tumor NSCLC sample 1080790; 28-8 at 2 ug/ml.
Assay [13] has the same target. Kind of assay: IHC histoscore (0-300), FFPE tumor NSCLC sample 1080766B; 28-8 at 2 ug/ml.
The target is the same in assay [14]. The assay is described as follows: IHC histoscore (0-300), FFPE tumor Mel sample 1168657B; 28-8 at 2 ug/ml.
Assay [15] has the same target. The assay is described as follows: IHC histoscore (0-300), FFPE tumor NSCLC sample 1080993B; 28-8 at 2 ug/ml.
Assay [16] has the same target. The assay is described as follows: IHC histoscore (0-300), FFPE tumor Mel sample T030668; 28-8 at 2 ug/ml.
Assay [17] shares this target. Kind of assay: IHC histoscore (0-300), FFPE tumor RCC sample 1164619B; 28-8 at 2 ug/ml.
Assay [18] has the same target. The assay is described as follows: IHC histoscore (0-300), FFPE tumor Mel sample T980747; 28-8 at 2 ug/ml.
Assay [19] deals with human PD-L1 (antigen of the surface plasmon resonance analysis) (human) (UniProt Q9NZQ7). Kind of assay: surface plasmon resonance; KD given for clone 28-8 alone.
Sequence of human PD-L1 (antigen of the surface plasmon resonance analysis) (human) (Q9NZQ7 19-238 limits assumed): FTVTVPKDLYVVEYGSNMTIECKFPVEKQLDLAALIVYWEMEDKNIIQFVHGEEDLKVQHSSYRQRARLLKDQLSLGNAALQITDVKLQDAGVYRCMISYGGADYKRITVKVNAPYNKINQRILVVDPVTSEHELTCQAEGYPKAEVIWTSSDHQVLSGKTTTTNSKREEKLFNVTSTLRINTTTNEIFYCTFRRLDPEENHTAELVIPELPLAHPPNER
Assay [20] addresses human PD-L1 (on cells or in tissue) (human) (UniProt Q9NZQ7). The assay is described as follows: IHC histoscore (0-300), FFPE tumor RCC sample 1167809B; 28-8 at 2 ug/ml.

This is an account of results in US20150125463A1.

Sequence of human PD-L1 (on cells or in tissue) (human) (Q9NZQ7 19-290): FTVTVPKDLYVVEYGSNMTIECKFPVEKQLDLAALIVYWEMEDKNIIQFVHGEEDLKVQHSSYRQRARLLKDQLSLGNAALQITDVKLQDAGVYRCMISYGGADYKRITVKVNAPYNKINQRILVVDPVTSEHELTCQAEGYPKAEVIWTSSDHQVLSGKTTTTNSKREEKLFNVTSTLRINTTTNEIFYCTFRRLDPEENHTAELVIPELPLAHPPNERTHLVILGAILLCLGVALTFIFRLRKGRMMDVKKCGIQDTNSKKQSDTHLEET

Consider “murine anti-human PD-L1 mAb 5H1 (antibody)”, for which the Histoscore Average in [1] turned out to be 12; in assay [2], 108; in assay [3], 4; in assay [4], 0; in assay [5], 98; in assay [6], 103. The Histoscore Average in assay [7] was 98; in assay [8], 40; in assay [9] it was 245.

The term Kd denotes the constant that tells how readily two partners part at equilibrium. Read a high Kd as weaker binding. “rabbit anti-human PD-L1 mAb 28-8 (antibody)”: the Histoscore Average amounted to 261 in assay [10]; 123 in [11]; 37 in assay [12]; 130 in assay [13]; 0 in [14]; 16 in [15]. Besides, the Histoscore Average in assay [16] is 113; in [17] it was 4; in [18], 9; in assay [20] it was 125. The substance further showed a Kd in assay [19] of 0.1 nM.
